Measured values published in patent US20200231681A1 (CHONG KUN DANG PHARMACEUTICAL, published 2020).

Legend:
[1] = molecular target: T1, mouse EGFR (SiNo. Biological Inc, 51091-M08H) (mouse, UniProt Q01279 25-647); experiment: ELISA, coated antigen 2 µg/ml
T1 construct: extracellular domain
Protocol: Particularly, mouse c-Met (SiNo. Biological Inc, 50622-M08H), cynomolgus monkey c-Met (SiNo. Biological Inc, 90304-CO8H), human c-Met (R&D Systems, 358-MT), mouse EGFR (SiNo. Biological Inc, 51091-M08H), cynomolgus monkey EGFR (SiNo. Biological, 90285-008B) and human EGFR (Abcam, 155639) antigens were all divided into a 96-well plate at a concentration of 2 μg/ml, after which the resulting plate was reacted at 4° C. overnight.
Color development was made by using TMB (Sigma, T4444) solution, wherein its value was measured at an optical density of 450 nm and its ELISA results are shown in FIG. 9.

[2] = molecular target: T2, human PDGF Rβ Fc chimera (R&D systems, 385-PR_CF) (human, UniProt P09619 33-530); experiment: indirect ELISA, hu8C4 at 1.200 nM
Protocol: (§1) Each antigen was diluted in 0.05 M carbonate-bicarbonate (Sigma, C3041) buffer at a concentration of 1 μg/ml, after which the resulting antigen was added into each well of a 96-well plate (Corning, #2592), such that the resulting plate was coated at 4° C. overnight. The plate was washed once with TBS-T, after which TBS-T containing 4%—skim milk was added by 200 μl into each well of the resulting plate in order to inhibit a non-specific binding, such that the resulting plate was reacted at 37° C. for 1 hour. Then, the plate was washed once with TBS-T buffer, after which a primary antibody was sequentially diluted in TBS-T buffer containing 2%—skim milk from a highest concentration of 30 nM to 0.002 nM, such that the resulting antibody was added by 100 μk into each well, thus being reacted at 37° C. for 2 hours. After being washed three times with TBS-T buffer, an anti-human kappa light chains-peroxidase (Sigma, A7164) was diluted at a ratio of 1:5000 as a secondary antibody, after which the resulting antibody was added by 100 μl into each well, thus being reacted at 37° C. for 1 hour. Then, after being washed three times with TBS-T buffer, TMB solution (Sigma, T4444) was added by 100 μl into each well to carry out an color developing reaction, after which 2 N […] solution was added by 50 μl into each well to stop the reaction. An optical density was measured based on a value at a wavelength of 450 nm by using a microplate reader and a reference wavelength of 570 nm was used.

[3] = molecular target: T3, human VEGF R2 Fc chimera (R&D systems, 357-KD_CF) (human, UniProt P35968 20-764); experiment: indirect ELISA, hu8C4 at 1.200 nM
T3 construct: also called VEGFR R2
Protocol: as §1

[4] = molecular target: T4, human IGF-I R (R&D systems, 391-GR-050) (human, UniProt P08069 31-932); experiment: indirect ELISA, hu8C4 at 1.200 nM
Protocol: as §1

[5] = molecular target: T5, human MSP R/Ron (R&D systems, 1947-MS-050) (human, UniProt Q04912 25-571, limits assumed); experiment: indirect ELISA, hu8C4 at 1.200 nM
Protocol: as §1

[6] = molecular target: T2, human PDGF Rβ Fc chimera (R&D systems, …); experiment: indirect ELISA, hu8C4 at 30.000 nM
Protocol: as §1

[7] = molecular target: T4, human IGF-I R (R&D systems, 391-GR-050); experiment: indirect ELISA, hu8C4 at 30.000 nM
Protocol: as §1

[8] = molecular target: T5, human MSP R/Ron (R&D systems, …); experiment: indirect ELISA, hu8C4 at 30.000 nM
Protocol: as §1

[9] = molecular target: T2, human PDGF Rβ Fc chimera (R&D systems, …); experiment: indirect ELISA, hu8C4 at 6.000 nM
Protocol: as §1

[10] = molecular target: T3, human VEGF R2 Fc chimera (R&D systems, …); experiment: indirect ELISA, hu8C4 at 6.000 nM
Protocol: as §1

[11] = molecular target: T4, human IGF-I R (R&D systems, 391-GR-050); experiment: indirect ELISA, hu8C4 at 6.000 nM
Protocol: as §1

[12] = molecular target: T5, human MSP R/Ron (R&D systems, …); experiment: indirect ELISA, hu8C4 at 6.000 nM
Protocol: as §1

[13] = molecular target: T2, human PDGF Rβ Fc chimera (R&D systems, …); experiment: indirect ELISA, hu8C4 at 0.002 nM
Protocol: as §1

[14] = molecular target: T3, human VEGF R2 Fc chimera (R&D systems, …); experiment: indirect ELISA, hu8C4 at 0.002 nM
Protocol: as §1

[15] = molecular target: T6, human c-Met Fc chimera (R&D systems, 358-MT_CF) (human, UniProt P08581 25-932); experiment: indirect ELISA, hu8C4 at 0.002 nM
T6 construct: extracellular domain; also called human c-Met (R&D Systems, 358-MT)
Protocol: as §1

[16] = molecular target: T4, human IGF-I R (R&D systems, 391-GR-050); experiment: indirect ELISA, hu8C4 at 0.002 nM
Protocol: as §1

[17] = molecular target: T5, human MSP R/Ron (R&D systems, …); experiment: indirect ELISA, hu8C4 at 0.002 nM
Protocol: as §1

[18] = molecular target: T5, human MSP R/Ron (R&D systems, …); experiment: indirect ELISA, hu8C4 at 0.240 nM
Protocol: as §1

B1: hu8C4 (IgG1 humanized antibody having a hinge region of SEQ ID NO: 38 in hu8C4-1) (antibody, V domains shown)
VH: EVQLVESGGGLVQPGGSLRLSCAASGYTFSDYYINWVRQAPGKGLEWIGEIFPGSGNTHFSARFKGRATLSADKSKNTAYLQMNSLRAEDTAVYYCAGGDYGFLYWGQGTLVTVSS
VL: DIQMTQSPSSLSASVGDRVTITCGASENIYGALNWYQQKPGKAPKLLIYGATNLADGVPSRFSGSGSGRDFTFTISSLQPEDIATYYCQNVLSSPYTFGQGTKVEIK
notes: light chain detected with anti-human kappa; also called anti-c-Met antibody hu8C4; hu8C4 monospecific antibody
For B1, the binding result [1] was “no binding”, the “A450 nm-A570 nm” value [2] was -0.01 A450 nm-A570 nm and the “A450 nm-A570 nm” value [3] was -0.01 A450 nm-A570 nm. The “A450 nm-A570 nm” value [4] was 0 A450 nm-A570 nm, the “A450 nm-A570 nm” value [5] was 0 A450 nm-A570 nm and the “A450 nm-A570 nm” value [6] was 0.01 A450 nm-A570 nm. The “A450 nm-A570 nm” value [7] was 0 A450 nm-A570 nm, the “A450 nm-A570 nm” value [8] was 0 A450 nm-A570 nm and the “A450 nm-A570 nm” value [9] was -0.01 A450 nm-A570 nm. The “A450 nm-A570 nm” value [10] was -0.01 A450 nm-A570 nm, the “A450 nm-A570 nm” value [11] was 0 A450 nm-A570 nm and the “A450 nm-A570 nm” value [12] was 0 A450 nm-A570 nm. For the same binder, the “A450 nm-A570 nm” value [13] was -0.01 A450 nm-A570 nm, the “A450 nm-A570 nm” value [14] was -0.01 A450 nm-A570 nm and the “A450 nm-A570 nm” value [15] was 0.05 A450 nm-A570 nm. The “A450 nm-A570 nm” value [16] was 0 A450 nm-A570 nm, the “A450 nm-A570 nm” value [17] was 0 A450 nm-A570 nm and the “A450 nm-A570 nm” value [18] was 0 A450 nm-A570 nm.
